From patent US20220009987A9, “HUMAN RESISTIN COMPOSITIONS AND METHODS OF TREATING TLR4-MEDIATED DISEASE AND INFECTION” (THE REGENTS OF THE UNIVERSITY OF CALIFORNIA, priority 2017, published 2022)
Entries after “also recorded” stand apart in the source; their conditions may differ.

What was measured:
human TLR4 = human TLR4 (Homo sapiens, UniProt O00206); test: Pull-down assay with His-tagged human TLR4; type: binding; conditions: nickel-NTA agarose beads, anti-hRetn blot
Procedure: Pull-down Assay. 1 μg/ml protein His-tagged MBP, human TLR4 and human CAP1 were added to nickel-nitrilotriacetic acid-agarose beads (Invitrogen) in binding buffer (50 mM NaH2PO4, 500 mM NaCl, 10 mM Imidazole, pH 8.0) and mixed for 1 hour at 4° C., followed by washing and 1 h incubation at 4° C. with hRetn (E. coli-derived, Peprotech or 293T cell-derived, LifeSpan Biosciences) in binding buffer. Beads were washed in wash buffer (50 mM NaH2PO4, 500 mM NaCl, 20 mM Imidazole, pH 8.0), and complex protein eluted with elution buffer (50 mM NaH2PO4, 500 mM NaCl, 250 mM Imidazole, pH 6.0). His-MBP, His-TLR4 and His-CAP1 were detected by anti-His antibody (Abcam), and hRetn was detected by anti-hRetn antibody (donated by Mitchell Lazar) by Western Blot. For the N-peptide binding experiment, 1 μg/ml His-tagged human TLR4 with 500 ng/ml N-peptide or 10% TFE control was added to the beads in binding buffer and mixed for 30 min at 4° C., followed by co-immunoprecipitation using 1 μg/ml Flag-hRetn (LifeSpan Biosciences), anti-His or anti-Flag (Sigma).

human PBMCs = test: Human PBMC functional assay, LPS-induced cytokine secretion (ELISA); type: cell-based
Procedure: Human PBMCs. Human buffy coat was purchased from Zen-bio. Buffy coat was overlaid on top of Histopaque-1077 and spun at 700g at 25° C. with no brake and PBMCs were recovered from the interphase. PBMCs were plated in 96-well plates and stimulated with mammalian-derived human resistin (1 μg/mL, LifeSpan Biosciences) or hRetn N-peptide (1 μg/mL). After 24 hours, ultrapure LPS (100 ng/mL, Invivogen) was added and supernatants recovered for ELISA at 24 hours. Where indicated, cells were incubated for 4 hours with STAT3 (5, 15-DPP, 50 μM) or TBK1 (BX-795, 1 μM) inhibitors prior to hRetn treatment. For the hRetn competitive binding assay, 1×10^6 cells were incubated with recombinant hRetn (0.5 μg), washed in PBS then incubated with 0.5 μg LPS-biotin (incubations were 30 minutes on ice). Cells were washed in FACS buffer, treated with Fc block, and stained with BV605-conjugated streptavidin and α-human primary antibodies: CD14 (clone M5E2), CD11 b (clone M1/70) and MD2/TLR4 (clone HTA125) purchased from Affymetrix.
Cytokine Quantification. Sandwich ELISAs were performed using capture and biotinylated antibodies for human resistin (Peprotech), IL-10 and TNFα (BD Biosciences) according to manufacturer's instructions. Detection was performed with streptavidin-peroxidase (Jackson ImmunoResearch) and TMB peroxidase substrate (BD Biosciences), followed by addition of 2N H2SO4. Optical density (OD) was captured at 450 nm. Samples were compared to serial-fold dilution of recombinant protein. For Luminex, inflammatory cytokine kits (Affymetrix) were run according to manufacturer's instructions and quantified on Luminex MagPix (Luminex Corp.). For cytokine bead array, cytokine kits from BD Bioscience were run according to manufacturer's instructions on BD LSRII and analyzed using FCAP Array Software.

[1] = human PBMC, pre-treatment then LPS 100 ng/mL

Chain of human TLR4 (O00206 24-839): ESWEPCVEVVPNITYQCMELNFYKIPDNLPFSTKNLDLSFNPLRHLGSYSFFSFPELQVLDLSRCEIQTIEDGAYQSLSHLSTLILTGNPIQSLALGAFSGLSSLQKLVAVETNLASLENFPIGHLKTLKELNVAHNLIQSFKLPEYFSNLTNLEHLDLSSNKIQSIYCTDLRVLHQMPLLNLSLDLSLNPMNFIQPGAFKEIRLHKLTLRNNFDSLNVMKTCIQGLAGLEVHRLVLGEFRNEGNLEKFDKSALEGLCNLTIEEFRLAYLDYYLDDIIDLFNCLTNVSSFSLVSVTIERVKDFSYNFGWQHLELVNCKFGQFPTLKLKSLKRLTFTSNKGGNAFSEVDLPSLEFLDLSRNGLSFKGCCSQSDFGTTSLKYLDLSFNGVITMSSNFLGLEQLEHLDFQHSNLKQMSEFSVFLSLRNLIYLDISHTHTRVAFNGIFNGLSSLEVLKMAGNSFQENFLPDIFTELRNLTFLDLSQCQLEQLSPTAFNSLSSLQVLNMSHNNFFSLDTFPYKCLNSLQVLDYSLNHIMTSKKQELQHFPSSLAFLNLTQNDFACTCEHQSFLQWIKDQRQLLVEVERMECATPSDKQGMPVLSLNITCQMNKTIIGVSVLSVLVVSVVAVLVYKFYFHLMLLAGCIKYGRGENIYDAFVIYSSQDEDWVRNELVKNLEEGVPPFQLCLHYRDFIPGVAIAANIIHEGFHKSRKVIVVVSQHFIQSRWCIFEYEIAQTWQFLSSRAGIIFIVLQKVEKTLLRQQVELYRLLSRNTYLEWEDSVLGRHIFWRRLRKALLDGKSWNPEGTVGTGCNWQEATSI

B1: hRetn: human resistin protein (hRetn) having an amino acid sequence of SEQ ID NO: 1; recombinant, E. coli-derived or 293T cell-derived (protein, listed as Homo sapiens)
chain: MKALCLLLLPVLGLLVSSKTLCSMEEAINERIQEVAGSLIFRAISSIGLECQSVTSRGDLATCPRGFAVTGCTCGSACGSWDVRAETTCHCQCAGMDWTGARCCRVQP
hRetn in pull-down elution with his-TLR4 (Western blot) (human TLR4): only present in the elution with his-TLR4 | hRetn in pull-down elution with his-TLR4 (Western blot) (human TLR4; listed as mammalian-derived hRetn): only detected when pulled down with his-TLR4 | hRetn functional effect on TNFα and IL-10 when STAT3 signaling was inhibited (human PBMCs; human PBMC, 5,15-DPP 50 μM 4 hours prior to hRetn): also abrogated | hRetn functional effect on TNFα and IL-10 in the presence of TBK1 inhibitor (human PBMCs; human PBMC, BX-795 1 μM 4 hours prior to hRetn): abrogated | IL-10 expression after LPS (human PBMCs; [1]): increased IL-10 expression | LPS-induced TNFα secretion (human PBMCs; [1]): significantly more TNFα than cells treated with hRetn and LPS; also recorded: significantly reduced LPS-induced TNFα secretion
